# Measured values reported in US20230365662A1.
# “And” between values parts separate entries of the source, which are not always exact repeats. Identical values can stand only once.
# Target: HRgpA-6H (Porphyromonas gingivalis) (UniProt P28784)
# Test: ELISA, FASEBA Fab on coated HRgpA-6H
# UniProt P28784, sequence (P28784 228-991): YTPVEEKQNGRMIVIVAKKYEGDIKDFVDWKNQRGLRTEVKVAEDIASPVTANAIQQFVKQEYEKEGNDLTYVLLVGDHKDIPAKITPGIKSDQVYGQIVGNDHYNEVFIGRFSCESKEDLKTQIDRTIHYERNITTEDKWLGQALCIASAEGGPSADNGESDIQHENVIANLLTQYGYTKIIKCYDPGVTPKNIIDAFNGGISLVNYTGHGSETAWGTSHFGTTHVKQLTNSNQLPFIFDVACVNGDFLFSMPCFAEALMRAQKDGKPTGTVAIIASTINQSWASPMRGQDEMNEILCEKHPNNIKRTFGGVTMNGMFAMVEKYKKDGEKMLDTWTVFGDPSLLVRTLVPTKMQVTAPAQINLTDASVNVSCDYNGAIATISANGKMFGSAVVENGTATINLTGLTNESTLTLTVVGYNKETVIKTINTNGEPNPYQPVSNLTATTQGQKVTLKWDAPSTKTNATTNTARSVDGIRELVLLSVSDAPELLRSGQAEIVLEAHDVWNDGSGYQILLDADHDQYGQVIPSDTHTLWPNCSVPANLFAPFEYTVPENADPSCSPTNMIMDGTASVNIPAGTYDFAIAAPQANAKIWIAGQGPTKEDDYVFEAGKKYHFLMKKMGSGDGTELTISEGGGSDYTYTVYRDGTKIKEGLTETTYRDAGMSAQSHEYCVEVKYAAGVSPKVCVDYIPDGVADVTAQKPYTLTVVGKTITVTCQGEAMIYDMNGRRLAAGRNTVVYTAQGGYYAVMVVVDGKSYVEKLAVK
Binder,OD450nm,Ratio OD(Variant)/OD(WT)
"KB001 mouse Fab VL S95Q (Fab, V domains shown) VH: EVQLKQSGPGLVAPSQSLSITCTVSGFSLSIYSVHWVRQPPGKGLEWLGMIWGGGSSDYNSALKSRLSISKDNSKSQVFLKMNSLQTDDTAMYYCARNGNFYAMDYWGQGTSVTVSS VL: QIVLTQSPAIMSASLGERVTMTCTASSSVSSSFLHWYQQKPGSSPQLWIYSTSNLASGVPARFSGSGSGTSYSLTISSMEAEDAATYYCHQYHHQPYIYTFGGGTKLEIK",0.931 and 0.936 and 0.927,1.01 (2×) and 1.02
"KB001 mouse Fab VL T100L (Fab, V domains shown) VH: EVQLKQSGPGLVAPSQSLSITCTVSGFSLSIYSVHWVRQPPGKGLEWLGMIWGGGSSDYNSALKSRLSISKDNSKSQVFLKMNSLQTDDTAMYYCARNGNFYAMDYWGQGTSVTVSS VL: QIVLTQSPAIMSASLGERVTMTCTASSSVSSSFLHWYQQKPGSSPQLWIYSTSNLASGVPARFSGSGSGTSYSLTISSMEAEDAATYYCHQYHHSPYIYLFGGGTKLEIK",0.587 and 0.566,1.12 and 1.08
"KB001 mouse Fab VL Y97E (Fab, V domains shown) VH: EVQLKQSGPGLVAPSQSLSITCTVSGFSLSIYSVHWVRQPPGKGLEWLGMIWGGGSSDYNSALKSRLSISKDNSKSQVFLKMNSLQTDDTAMYYCARNGNFYAMDYWGQGTSVTVSS VL: QIVLTQSPAIMSASLGERVTMTCTASSSVSSSFLHWYQQKPGSSPQLWIYSTSNLASGVPARFSGSGSGTSYSLTISSMEAEDAATYYCHQYHHSPEIYTFGGGTKLEIK",0.793,1
"KB001 mouse Fab VL T100Y (Fab, V domains shown) VH: EVQLKQSGPGLVAPSQSLSITCTVSGFSLSIYSVHWVRQPPGKGLEWLGMIWGGGSSDYNSALKSRLSISKDNSKSQVFLKMNSLQTDDTAMYYCARNGNFYAMDYWGQGTSVTVSS VL: QIVLTQSPAIMSASLGERVTMTCTASSSVSSSFLHWYQQKPGSSPQLWIYSTSNLASGVPARFSGSGSGTSYSLTISSMEAEDAATYYCHQYHHSPYIYYFGGGTKLEIK",0.546,1.04
"KB001 mouse Fab VL T100M (Fab, V domains shown) VH: EVQLKQSGPGLVAPSQSLSITCTVSGFSLSIYSVHWVRQPPGKGLEWLGMIWGGGSSDYNSALKSRLSISKDNSKSQVFLKMNSLQTDDTAMYYCARNGNFYAMDYWGQGTSVTVSS VL: QIVLTQSPAIMSASLGERVTMTCTASSSVSSSFLHWYQQKPGSSPQLWIYSTSNLASGVPARFSGSGSGTSYSLTISSMEAEDAATYYCHQYHHSPYIYMFGGGTKLEIK",0.589,1.12
"KB001 mouse Fab VL T24Q (Fab, V domains shown) VH: EVQLKQSGPGLVAPSQSLSITCTVSGFSLSIYSVHWVRQPPGKGLEWLGMIWGGGSSDYNSALKSRLSISKDNSKSQVFLKMNSLQTDDTAMYYCARNGNFYAMDYWGQGTSVTVSS VL: QIVLTQSPAIMSASLGERVTMTCQASSSVSSSFLHWYQQKPGSSPQLWIYSTSNLASGVPARFSGSGSGTSYSLTISSMEAEDAATYYCHQYHHSPYIYTFGGGTKLEIK",0.765,0.995
"KB001 mouse Fab VL T100F (Fab, V domains shown) VH: EVQLKQSGPGLVAPSQSLSITCTVSGFSLSIYSVHWVRQPPGKGLEWLGMIWGGGSSDYNSALKSRLSISKDNSKSQVFLKMNSLQTDDTAMYYCARNGNFYAMDYWGQGTSVTVSS VL: QIVLTQSPAIMSASLGERVTMTCTASSSVSSSFLHWYQQKPGSSPQLWIYSTSNLASGVPARFSGSGSGTSYSLTISSMEAEDAATYYCHQYHHSPYIYFFGGGTKLEIK",0.552,1.05
"KB001 mouse Fab VL T24N/G67D (Fab, V domains shown) VH: EVQLKQSGPGLVAPSQSLSITCTVSGFSLSIYSVHWVRQPPGKGLEWLGMIWGGGSSDYNSALKSRLSISKDNSKSQVFLKMNSLQTDDTAMYYCARNGNFYAMDYWGQGTSVTVSS VL: QIVLTQSPAIMSASLGERVTMTCNASSSVSSSFLHWYQQKPGSSPQLWIYSTSNLASGVPARFSGSDSGTSYSLTISSMEAEDAATYYCHQYHHSPYIYTFGGGTKLEIK",0.755,0.982
"KB001 mouse Fab VL T24L (Fab, V domains shown) VH: EVQLKQSGPGLVAPSQSLSITCTVSGFSLSIYSVHWVRQPPGKGLEWLGMIWGGGSSDYNSALKSRLSISKDNSKSQVFLKMNSLQTDDTAMYYCARNGNFYAMDYWGQGTSVTVSS VL: QIVLTQSPAIMSASLGERVTMTCLASSSVSSSFLHWYQQKPGSSPQLWIYSTSNLASGVPARFSGSGSGTSYSLTISSMEAEDAATYYCHQYHHSPYIYTFGGGTKLEIK",0.753 and 0.752 and 0.667,0.979 and 0.978 and 0.867
"KB001 mouse Fab VL T100G (Fab, V domains shown) VH: EVQLKQSGPGLVAPSQSLSITCTVSGFSLSIYSVHWVRQPPGKGLEWLGMIWGGGSSDYNSALKSRLSISKDNSKSQVFLKMNSLQTDDTAMYYCARNGNFYAMDYWGQGTSVTVSS VL: QIVLTQSPAIMSASLGERVTMTCTASSSVSSSFLHWYQQKPGSSPQLWIYSTSNLASGVPARFSGSGSGTSYSLTISSMEAEDAATYYCHQYHHSPYIYGFGGGTKLEIK",0.603 and 0.597,1.15 and 1.14
"KB001 mouse Fab VL T100Q (Fab, V domains shown) VH: EVQLKQSGPGLVAPSQSLSITCTVSGFSLSIYSVHWVRQPPGKGLEWLGMIWGGGSSDYNSALKSRLSISKDNSKSQVFLKMNSLQTDDTAMYYCARNGNFYAMDYWGQGTSVTVSS VL: QIVLTQSPAIMSASLGERVTMTCTASSSVSSSFLHWYQQKPGSSPQLWIYSTSNLASGVPARFSGSGSGTSYSLTISSMEAEDAATYYCHQYHHSPYIYQFGGGTKLEIK",0.586 and 0.596 and 0.604,1.12 and 1.14 and 1.15
"KB001 mouse Fab VL T100W (Fab, V domains shown) VH: EVQLKQSGPGLVAPSQSLSITCTVSGFSLSIYSVHWVRQPPGKGLEWLGMIWGGGSSDYNSALKSRLSISKDNSKSQVFLKMNSLQTDDTAMYYCARNGNFYAMDYWGQGTSVTVSS VL: QIVLTQSPAIMSASLGERVTMTCTASSSVSSSFLHWYQQKPGSSPQLWIYSTSNLASGVPARFSGSGSGTSYSLTISSMEAEDAATYYCHQYHHSPYIYWFGGGTKLEIK",0.585,1.12
"KB001 mouse Fab VL T24K/R18S (Fab, V domains shown) VH: EVQLKQSGPGLVAPSQSLSITCTVSGFSLSIYSVHWVRQPPGKGLEWLGMIWGGGSSDYNSALKSRLSISKDNSKSQVFLKMNSLQTDDTAMYYCARNGNFYAMDYWGQGTSVTVSS VL: QIVLTQSPAIMSASLGESVTMTCKASSSVSSSFLHWYQQKPGSSPQLWIYSTSNLASGVPARFSGSGSGTSYSLTISSMEAEDAATYYCHQYHHSPYIYTFGGGTKLEIK",0.761,0.99
"KB001 mouse Fab VL T100R (Fab, V domains shown) VH: EVQLKQSGPGLVAPSQSLSITCTVSGFSLSIYSVHWVRQPPGKGLEWLGMIWGGGSSDYNSALKSRLSISKDNSKSQVFLKMNSLQTDDTAMYYCARNGNFYAMDYWGQGTSVTVSS VL: QIVLTQSPAIMSASLGERVTMTCTASSSVSSSFLHWYQQKPGSSPQLWIYSTSNLASGVPARFSGSGSGTSYSLTISSMEAEDAATYYCHQYHHSPYIYRFGGGTKLEIK",0.616,1.18
"KB001 mouse Fab VL T24A (Fab, V domains shown) VH: EVQLKQSGPGLVAPSQSLSITCTVSGFSLSIYSVHWVRQPPGKGLEWLGMIWGGGSSDYNSALKSRLSISKDNSKSQVFLKMNSLQTDDTAMYYCARNGNFYAMDYWGQGTSVTVSS VL: QIVLTQSPAIMSASLGERVTMTCAASSSVSSSFLHWYQQKPGSSPQLWIYSTSNLASGVPARFSGSGSGTSYSLTISSMEAEDAATYYCHQYHHSPYIYTFGGGTKLEIK",0.757,0.984
"KB001 mouse Fab VL T100E (Fab, V domains shown) VH: EVQLKQSGPGLVAPSQSLSITCTVSGFSLSIYSVHWVRQPPGKGLEWLGMIWGGGSSDYNSALKSRLSISKDNSKSQVFLKMNSLQTDDTAMYYCARNGNFYAMDYWGQGTSVTVSS VL: QIVLTQSPAIMSASLGERVTMTCTASSSVSSSFLHWYQQKPGSSPQLWIYSTSNLASGVPARFSGSGSGTSYSLTISSMEAEDAATYYCHQYHHSPYIYEFGGGTKLEIK",0.613 and 0.621 and 0.674,1.17 and 1.19 and 1.29
"KB001 mouse Fab VL T24I (Fab, V domains shown) VH: EVQLKQSGPGLVAPSQSLSITCTVSGFSLSIYSVHWVRQPPGKGLEWLGMIWGGGSSDYNSALKSRLSISKDNSKSQVFLKMNSLQTDDTAMYYCARNGNFYAMDYWGQGTSVTVSS VL: QIVLTQSPAIMSASLGERVTMTCIASSSVSSSFLHWYQQKPGSSPQLWIYSTSNLASGVPARFSGSGSGTSYSLTISSMEAEDAATYYCHQYHHSPYIYTFGGGTKLEIK",0.741,0.964
"KB001 mouse Fab VL T100S (Fab, V domains shown) VH: EVQLKQSGPGLVAPSQSLSITCTVSGFSLSIYSVHWVRQPPGKGLEWLGMIWGGGSSDYNSALKSRLSISKDNSKSQVFLKMNSLQTDDTAMYYCARNGNFYAMDYWGQGTSVTVSS VL: QIVLTQSPAIMSASLGERVTMTCTASSSVSSSFLHWYQQKPGSSPQLWIYSTSNLASGVPARFSGSGSGTSYSLTISSMEAEDAATYYCHQYHHSPYIYSFGGGTKLEIK",0.602 and 0.664 and 0.625,1.15 and 1.27 and 1.19
"KB001 mouse Fab VL T100H (Fab, V domains shown) VH: EVQLKQSGPGLVAPSQSLSITCTVSGFSLSIYSVHWVRQPPGKGLEWLGMIWGGGSSDYNSALKSRLSISKDNSKSQVFLKMNSLQTDDTAMYYCARNGNFYAMDYWGQGTSVTVSS VL: QIVLTQSPAIMSASLGERVTMTCTASSSVSSSFLHWYQQKPGSSPQLWIYSTSNLASGVPARFSGSGSGTSYSLTISSMEAEDAATYYCHQYHHSPYIYHFGGGTKLEIK",0.597 and 0.631,1.14 and 1.21
"KB001 mouse Fab VL T24G (Fab, V domains shown) VH: EVQLKQSGPGLVAPSQSLSITCTVSGFSLSIYSVHWVRQPPGKGLEWLGMIWGGGSSDYNSALKSRLSISKDNSKSQVFLKMNSLQTDDTAMYYCARNGNFYAMDYWGQGTSVTVSS VL: QIVLTQSPAIMSASLGERVTMTCGASSSVSSSFLHWYQQKPGSSPQLWIYSTSNLASGVPARFSGSGSGTSYSLTISSMEAEDAATYYCHQYHHSPYIYTFGGGTKLEIK",0.686 and 0.735,0.892 and 0.956
